Test results as given in IntAct's records for PubMed 16377563.

Experiments:
[1] = target: h2ax_human H2AX (UniProt P16104)
[2] = target: h2ax_human H2AX (UniProt P16104); remark: listed apart in the source
[3] = target: h2ax_human H2AX (UniProt P16104); remark: listed apart in the source

In the case of “Mediator of DNA damage checkpoint protein 1 (Homo sapiens), Q14676 K1936M”, the “effect of a mutation on the interaction” value [1] is reported as “disrupting interaction” and the “effect of a mutation on the interaction” value [2] is reported as “decreasing interaction”.

In the case of “Mediator of DNA damage checkpoint protein 1 (Homo sapiens), Q14676 R1933Q”, the “effect of a mutation on the interaction” value [3] is reported as “disrupting interaction”.

For “Mediator of DNA damage checkpoint protein 1 (Homo sapiens), Q14676 T1898V”, the “effect of a mutation on the interaction” value [3] was “decreasing interaction”.
